Laboratory results from the supplement of paper PMC9112550, “Optimization of the antimicrobial peptide Bac7 by deep mutational scanning” (BMC Biology, 2022).

Tested on: Escherichia coli TOP10
Experiment: shrunken log2 fold change of peptide-encoding DNA abundance (4.5 h post-induction vs induction); higher = less antimicrobial activity (less host growth inhibition)
Settings: time post-induction: 4.5 h; library: site-saturation at positions 5, 18, 19, 20
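Note: peptides expressed intracellularly from a pBAD plasmid library in pooled LB shake-flask culture, induced with 0.3% L-arabinose, DNA abundance read by NGS, three biological replicates, DESeq2 with apeglm shrinkage.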

Point of comparison: RRIRARPPRLPRPRPRPDTCPRP, “shrunken log2 fold change” value -0.162. Against it:
- RRIRARPPRLPRPRPRPAADPRP — higher, 1.13
- RRIRARPPRLPRPRPRPAAEPRP — higher, 1.6
- RRIRARPPRLPRPRPRPAAIPRP — higher, 0.845
- RRIRARPPRLPRPRPRPACPPRP — higher, 0.255
- RRIRARPPRLPRPRPRPADQPRP — higher, 0.755
- RRIRARPPRLPRPRPRPAEPPRP — higher, 0.443
- RRIRARPPRLPRPRPRPAFCPRP — higher, 0.645
- RRIRARPPRLPRPRPRPAIHPRP — within 0.2 log units, -0.223
- RRIRARPPRLPRPRPRPAKNPRP — higher, 0.312
- RRIRARPPRLPRPRPRPALDPRP — higher, 0.756
- RRIRARPPRLPRPRPRPALLPRP — higher, 0.718
- RRIRARPPRLPRPRPRPALQPRP — higher, 0.354
- RRIRARPPRLPRPRPRPANPPRP — higher, 0.425
- RRIRARPPRLPRPRPRPAPIPRP — higher, 0.448
- RRIRARPPRLPRPRPRPAPNPRP — higher, 0.737
- RRIRARPPRLPRPRPRPAQCPRP — higher, 0.469
- RRIRARPPRLPRPRPRPAQLPRP — higher, 0.324
- RRIRARPPRLPRPRPRPAQTPRP — higher, 0.057
- RRIRARPPRLPRPRPRPARIPRP — higher, 0.169
- RRIRARPPRLPRPRPRPARRPRP — higher, 0.388
- RRIRARPPRLPRPRPRPARTPRP — higher, 0.584
- RRIRARPPRLPRPRPRPASLPRP — higher, 0.196
- RRIRARPPRLPRPRPRPASSPRP — higher, 0.16
- RRIRARPPRLPRPRPRPATPPRP — higher, 0.894
- RRIRARPPRLPRPRPRPAWAPRP — higher, 0.48
- RRIRARPPRLPRPRPRPAWWPRP — higher, 0.895
- RRIRARPPRLPRPRPRPAYGPRP — higher, 0.0552
- RRIRARPPRLPRPRPRPAYQPRP — higher, 0.106
- RRIRARPPRLPRPRPRPAYVPRP — within 0.2 log units, -0.118
- RRIRARPPRLPRPRPRPCAKPRP — higher, 0.984
- RRIRARPPRLPRPRPRPCCQPRP — higher, 0.102
- RRIRARPPRLPRPRPRPCDRPRP — within 0.2 log units, -0.00133
- RRIRARPPRLPRPRPRPCFPPRP — within 0.2 log units, -0.0469
- RRIRARPPRLPRPRPRPCGYPRP — higher, 0.0562
- RRIRARPPRLPRPRPRPCKDPRP — higher, 0.0511
- RRIRARPPRLPRPRPRPCKWPRP — higher, 0.146
- RRIRARPPRLPRPRPRPCLCPRP — lower, -0.495
- RRIRARPPRLPRPRPRPCLDPRP — higher, 0.313
- RRIRARPPRLPRPRPRPCLHPRP — higher, 1.24
- RRIRARPPRLPRPRPRPCLNPRP — lower, -0.424
- RRIRARPPRLPRPRPRPCLTPRP — higher, 0.158
- RRIRARPPRLPRPRPRPCMDPRP — within 0.2 log units, 0.0143
- RRIRARPPRLPRPRPRPCNNPRP — within 0.2 log units, -0.352
- RRIRARPPRLPRPRPRPCQGPRP — within 0.2 log units, -0.11
- RRIRARPPRLPRPRPRPCRAPRP — higher, 0.261
- RRIRARPPRLPRPRPRPCTLPRP — higher, 0.151
- RRIRARPPRLPRPRPRPCVLPRP — within 0.2 log units, -0.0267
- RRIRARPPRLPRPRPRPCWRPRP — within 0.2 log units, -0.0211
- RRIRARPPRLPRPRPRPCWYPRP — within 0.2 log units, -0.16
- RRIRARPPRLPRPRPRPCYAPRP — within 0.2 log units, -0.26
- RRIRARPPRLPRPRPRPCYEPRP — within 0.2 log units, -0.109
- RRIRARPPRLPRPRPRPCYTPRP — lower, -0.486
- RRIRARPPRLPRPRPRPDAPPRP — higher, 0.942
- RRIRARPPRLPRPRPRPDCHPRP — higher, 1.05
- RRIRARPPRLPRPRPRPDCPPRP — higher, 0.337
- RRIRARPPRLPRPRPRPDEVPRP — higher, 0.446
- RRIRARPPRLPRPRPRPDFPPRP — higher, 0.102
- RRIRARPPRLPRPRPRPDGKPRP — higher, 0.154
- RRIRARPPRLPRPRPRPDHMPRP — within 0.2 log units, -0.328
- RRIRARPPRLPRPRPRPDIYPRP — higher, 0.115
- RRIRARPPRLPRPRPRPDKMPRP — higher, 0.104
- RRIRARPPRLPRPRPRPDNYPRP — higher, 0.0577
- RRIRARPPRLPRPRPRPDPRPRP — higher, 0.254
- RRIRARPPRLPRPRPRPDPWPRP — higher, 0.308
- RRIRARPPRLPRPRPRPDQCPRP — within 0.2 log units, 0.0213
- RRIRARPPRLPRPRPRPDSFPRP — within 0.2 log units, -0.0867
- RRIRARPPRLPRPRPRPDSLPRP — higher, 0.0733
- RRIRARPPRLPRPRPRPDTTPRP — within 0.2 log units, 0.0242
- RRIRARPPRLPRPRPRPDVKPRP — higher, 0.395
- RRIRARPPRLPRPRPRPDWSPRP — higher, 0.048
- RRIRARPPRLPRPRPRPDYWPRP — higher, 0.139
- RRIRARPPRLPRPRPRPEAIPRP — higher, 0.839
- RRIRARPPRLPRPRPRPEANPRP — higher, 1.69
- RRIRARPPRLPRPRPRPECNPRP — higher, 0.807
- RRIRARPPRLPRPRPRPEEAPRP — higher, 3.84
- RRIRARPPRLPRPRPRPEEEPRP — higher, 0.178
- RRIRARPPRLPRPRPRPEFHPRP — higher, 0.847
- RRIRARPPRLPRPRPRPEFNPRP — higher, 1.05
- RRIRARPPRLPRPRPRPEGNPRP — higher, 0.295
- RRIRARPPRLPRPRPRPEICPRP — higher, 1.01
- RRIRARPPRLPRPRPRPEIMPRP — higher, 0.43
- RRIRARPPRLPRPRPRPEIQPRP — higher, 1.71
- RRIRARPPRLPRPRPRPEISPRP — higher, 0.81
- RRIRARPPRLPRPRPRPEPDPRP — within 0.2 log units, -0.0215
- RRIRARPPRLPRPRPRPEPRPRP — higher, 0.679
- RRIRARPPRLPRPRPRPEQMPRP — higher, 1.06
- RRIRARPPRLPRPRPRPEQYPRP — within 0.2 log units, -0.0243
- RRIRARPPRLPRPRPRPERHPRP — higher, 0.58
- RRIRARPPRLPRPRPRPERMPRP — higher, 0.618
- RRIRARPPRLPRPRPRPERTPRP — higher, 0.143
- RRIRARPPRLPRPRPRPESAPRP — higher, 0.858
- RRIRARPPRLPRPRPRPESIPRP — within 0.2 log units, -0.0955
- RRIRARPPRLPRPRPRPETMPRP — higher, 0.0902
- RRIRARPPRLPRPRPRPEWDPRP — higher, 1.13
- RRIRARPPRLPRPRPRPFCFPRP — higher, 0.42
- RRIRARPPRLPRPRPRPFDWPRP — higher, 0.608
- RRIRARPPRLPRPRPRPFECPRP — within 0.2 log units, -0.00737
- RRIRARPPRLPRPRPRPFEQPRP — within 0.2 log units, -0.072
- RRIRARPPRLPRPRPRPFEYPRP — within 0.2 log units, -0.0276
- RRIRARPPRLPRPRPRPFFCPRP — higher, 0.2
- RRIRARPPRLPRPRPRPFFFPRP — higher, 0.419
- RRIRARPPRLPRPRPRPFGCPRP — higher, 0.128
- RRIRARPPRLPRPRPRPFGEPRP — higher, 0.15
- RRIRARPPRLPRPRPRPFHWPRP — higher, 0.277
- RRIRARPPRLPRPRPRPFIDPRP — lower, -0.554
- RRIRARPPRLPRPRPRPFKAPRP — within 0.2 log units, 0.0354
- RRIRARPPRLPRPRPRPFKIPRP — within 0.2 log units, -0.0575
- RRIRARPPRLPRPRPRPFKPPRP — within 0.2 log units, -0.0739
